Measurements as given in EP3932948A1 (Sunshine Guojian Pharmaceutical (Shanghai) Co., Ltd., dated 2022).

Assays:
[1] = molecular target: T1, LAG-3 on the cell surface of SEA-activated human PBMC (activated T cells) (human, UniProt P18627 23-525); assay: cell-based or functional assay
T1 sequence (looked up): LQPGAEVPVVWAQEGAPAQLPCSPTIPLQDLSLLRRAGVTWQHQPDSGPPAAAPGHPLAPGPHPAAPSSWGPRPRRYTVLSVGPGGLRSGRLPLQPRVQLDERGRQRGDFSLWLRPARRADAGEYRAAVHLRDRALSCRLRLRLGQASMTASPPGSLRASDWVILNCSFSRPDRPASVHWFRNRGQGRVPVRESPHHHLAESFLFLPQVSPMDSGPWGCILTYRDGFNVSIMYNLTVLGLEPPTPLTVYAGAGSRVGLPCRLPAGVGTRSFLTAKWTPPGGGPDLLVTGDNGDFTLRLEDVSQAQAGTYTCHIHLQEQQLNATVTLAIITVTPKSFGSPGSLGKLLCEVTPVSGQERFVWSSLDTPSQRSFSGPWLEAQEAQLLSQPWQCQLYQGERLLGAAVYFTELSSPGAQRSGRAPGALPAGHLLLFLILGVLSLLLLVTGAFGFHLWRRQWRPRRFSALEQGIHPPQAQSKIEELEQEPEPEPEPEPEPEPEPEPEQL

[2] = molecular target: T2, LAG-3-ECD-His (LAG-3 extracellular segment with His tag, purchased from Sino Biological Inc.) (UniProt P18627 23-450); assay: ELISA, plate coated with LAG-3-ECD-His (10 ng/well), anti-human IgG (Fc) detection
T2 construct: extracellular domain; not shown: His tag
T2 sequence (looked up): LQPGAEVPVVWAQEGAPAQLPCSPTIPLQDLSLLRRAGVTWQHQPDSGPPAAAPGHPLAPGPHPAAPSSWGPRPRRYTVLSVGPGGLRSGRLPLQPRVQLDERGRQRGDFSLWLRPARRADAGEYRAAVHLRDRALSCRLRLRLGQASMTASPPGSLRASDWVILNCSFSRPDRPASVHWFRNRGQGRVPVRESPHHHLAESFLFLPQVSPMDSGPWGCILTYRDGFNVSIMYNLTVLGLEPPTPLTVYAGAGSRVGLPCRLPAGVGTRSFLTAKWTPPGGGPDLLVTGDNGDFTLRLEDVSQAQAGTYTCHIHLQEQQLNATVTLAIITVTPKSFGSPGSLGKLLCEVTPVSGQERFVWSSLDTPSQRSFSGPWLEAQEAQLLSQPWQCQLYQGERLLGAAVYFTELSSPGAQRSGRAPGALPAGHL

[3] = molecular target: T3, full-length human LAG-3 on CHO-S cells (CHO-S-LAG-3) (human, UniProt P18627 23-525); assay: flow cytometry, blocking of Biotin-FGL1-hFc (2 ug/ml) binding to CHO-S-LAG-3 cells
T3 construct: whole, on cells
T3 sequence (looked up): T1 sequence (looked up)

[4] = molecular target: T4, recombinant LAG-3 (purchased from SinoBiological, Cat. No.: 16498-H08H) (human, UniProt P18627 23-450); assay: SPR (Biacore 8K), antibody captured on Protein A chip, recombinant LAG-3 as analyte
T4 construct: also called human LAG-3
T4 sequence (looked up): T2 sequence (looked up)

[5] = molecular target: T1, LAG-3 on the cell surface of …; assay: flow cytometry, biotinylated antibody on SEA-activated human PBMC, PE-Streptavidin detection

B1: 5E7-Hu-IgG4 (antibody, V domains shown)
VH: EVQLVESGGGLVKPGGSLRLSCAASGFTFSDDYMAWFRQAPGKRLEWVASISHGGDYIYYADNLKGRFTISRDNAKNSLYLQMNSLRAEDTAVYFCSRDRRSIDYWGQGTLVTVSS
VL: DIQMTQSPSSLSASVGDRVTITCRASQDISNYLSWYQQKPGKTIKLLIYYTSRLHSGVPSRFSGSGSGTDYTFTISSLQPEDIATYFCQQGKTLPYTFGQGTKVEIKR
modifications: Biotinylated with NHS-biotin only for the flow cytometry of Example 7 (positions not defined).
notes: also called humanized antibody No. 5E7; 5E7-Hu-IgG4-HC + 5E7-Hu-LC
- EC50 of enhancing the secretion of IL-2 by SEA-stimulated PBMC (Fig. 3A) [1]: 0.0781 µg/mL
- EC50 of enhancing the secretion of IL-2 by SEA-stimulated PBMC (Fig. 3B) [1]: 0.00307 µg/mL
- EC50 [2]: 0.00908 µg/mL
- IC50 [3]: 0.0977 µg/mL
- Kd [4]: 4.17 pM
- koff [4]: 1.84e-05 s⁻¹
- kon [4]: 4.41e+06 M⁻¹ s⁻¹
- EC50 [5]: 0.0531 µg/mL
